Measured values from the nanobody polyreactivity screen of Harvey et al. (2022).

Assay: yeast display, Sf9 membrane polyspecificity reagent, FACS + sequencing; frameworks hold sequencing errors
Outline: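 Using colony PCR, genes from sorted yeast display clones were amplified, then sequenced on MiSeq at 2 × 250 and filtered by CDR length. The clones had been stained with 10% biotinylated, detergent-solubilized Sf9 membrane reagent for 1 hour at 4 °C and sorted by FACS into low and high (top ~1%) gates on anti-HA and streptavidin fluorescence. Polyreactivity labels come from the gate of origin.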

Row | Sequence | polyreactivity (PSR sort gate)
1 | QVQLVESGGGLVQAGGSLRLSCAASGFIFRYYAMGWYRQAPGKERELVADISWSGGSTHYADSVKGRFTISRDNAKNTVYLQMNSQKPEDTAVYYCAADPTLYSSWSTYYRSNYWGQGTQVTVSS | high polyreactivity
2 | QVQLVESGGVLVQAGGSLRLSCAASGRTFRYYGMGWYRQAPGKERVVAAITWSGDTTYYADSVKGRFTISRDNAKNTVYLQMNSLKPEDTAVYYCAAQSWHRYYYWGQGTQVTVSS | high polyreactivity
3 | QVQLVESGGGLVQAGGSLRLSCAASGYIFQYNAMGWYRQAPGKERELVAAISRGGRTNYADSVKGRFTISRDNAKNTVYLQMNSLNPEDTAVYFCAAKRPWGYYPWSTQTGDYWGQGTQVTVSS | high polyreactivity
4 | QVQLVESGGGLVQAGGSLRLSCAASGSTFDAYAMGWYRQAPGKDRELVAGISSGGSYEYADSVKGRFTISRDNAKNTVYLQMNSLIPEDTAVYYCAADSRQSVYYYQPTKFDYWGQGSQVTVSS | low polyreactivity
5 | QVQLVESAGGLVQAGGSLRLSCADSGSIFRYYAMGWYRQAQGQERELVAAISYSGGRTYYADSVKGRFTISRDNAKNTVYLQMNSLKPEDTAVYYCNAGAGKRGYDYWGQGTQVTVSS | low polyreactivity
6 | QVQLVESGGGLVQAGGSLRLSCAASGSTFRHNAMGWYRDAPGTERELVATIRTSGGTTYYADSVKGRFTISRDNAKNTVYLQMNSLKPEDTAVYYCAAKYSLLRQYNRLDYWGQGTQVTVSS | low polyreactivity
7 | QVQLVESGGGLVQAGGSLRLSCAASGSTFKKYAMGWYRQAPGKERELVATISKNGGSTYYADSVNGRFTISRDNAKNTVYLQMNSLKPEDTAVYYCATRWWYYRTWYDYWGQGTQVTVSS | high polyreactivity
8 | QVQLVESGGGLVQAGGSLRLSCAASGRTCGSYAMGWYRQAPGKERELVAAISLSAGSTYYADSVKGRFTISRDNAKNTVYLQMNSLKPEDTAVYYCAAGTQWYSQVYIYYYWGQGTQVTVSS | low polyreactivity
9 | QVQLVESGGGLVQAGGSLRLSCAASGRSFPTYAMGWYRQAPGKERELVATISWSGGRTYYADSVKGRFTISRDNAKNTVYLLMNSLKPEDTAVYYCNAYISYRWYRWEYEYWGQGTQVTVSS | low polyreactivity
10 | QVQLVETGGGLVQAGGSLRLSCAASGSIFSIYAMGWYRQAPGKERELVAAISWSGGSTYYADSVKGRFTISRDNAKNTVYLQMNSLKPEDTAVYYCLRQDYHYHPYDYWGQGTQVTVSS | low polyreactivity
11 | QVQLVESGGRLVKAGASHRLSCAASAITCGRNTRGWYRQAPGKARELVAAIDSGVNTYADSVKGRFTISRDNAKYTVYLQMTSLKPEDTSVYYWAFVGGEFSSYGYWGLGTQVTVSS | low polyreactivity
12 | QVQLVESGGGLVQAGGSLRLSCAASGSTFVPNAMGWYRQAPGKEREFVAAIRVSCDNTYYADSVKGRFTISRDNAKNTDYLQMNSLKPEDTAVYYCAATGTVLGSVDYWGQGSQVTVSS | low polyreactivity
13 | PVQLVESGGGLVQAGGRLLLICAASGSIFTPKAMGWYRQAPGKERELVAAITSRGGSTYYADSVKGRFTISRDNAKNTFYLQMNSLKPEDTAVYYCASKPHSSKYDYWGQGTQVTVSS | low polyreactivity
14 | QVQLVESVGGLVQAGGSLRLSCAAAGRTFTLYAMGWYRQATGKERELVAAIRWSGSSTYSADSVKGRFTISRDNAKNTVYLQMNSLKPEDTAVYACDARAGRYDRYGYWGQGTQVSVSS | high polyreactivity
15 | QVQLVESGGGLVQAGGSLRLSCAASGSIFIWNAMGWYRQAPGKERELVAAISFSGGSTYYADSVKGRFTISRDNAKNTVYLQMNSLKPEDTAVYYCAADSFSGRYYWWEYDYWGQGTQVTVSS | low polyreactivity
16 | QVQLVESGGGLVQAGGSVRLSCAASGRILKVYPMGWYRQAPGKEWEFVAAISVNGGRTYYADSVKGRFTISRDNAKNTVYLQRQRLNPEDTAVYYCAKRLYKPGNVFYSVDQSDYWGQGTQVTVSS | low polyreactivity
17 | QVQLVESGGGLVQAGGSLRLSCAASGSILGVYTMGWDRQAPGKERELVAAITSSSSSTYADSVKGRFTISRDNAKNTVYLQMNSVIPEDTAVYYCATRGWSKQLYGGYTQYYYWGQGTQVTVSS | high polyreactivity
18 | QVQLVESGGGLVQAGGSLRLSCAASGRTFRVYAMGWYRQAPGKERELVATLTGRGGSTDYADSVKGRFTISRDNAKNTVYLQMNILKPEDTAVYYCAAVGVSRRADPAWAGDYWGQGTQVTVSS | high polyreactivity
19 | QVQLVESGGGLVQAGGSLRLSCAASGRTSLGNAMGWYRQAPGKERELVAAISGSGGSTYYADSVKGRFTISRDNAKNTVYLQMNSLKPEDTAVYYCNKKLYGYQHYYWYYYWGQGTQVTVSS | high polyreactivity
20 | QVQLVESGGGLDQAGGSLRLSCAASGIIFGTNAMGWYIQAPGKESELVAAITWSGGNTTYADSVKGRFTISRDNAKNTVYLQMNSLKPEDTAVYYCAADFTRAGDYDYWGQGTQVTVSS | low polyreactivity
21 | QVQHVESGGVLVQAGGSLRLSCAASGSTFARNALGWYRQAPGKETELVAAITTRGSSTYYADSVKGRFTISRDKAKNTVYLQLYSLKPEDTAVYYCAAVSRRSWYWGGYRQNGMGYWGQGTQVTVSS | high polyreactivity
22 | QVQLVESGGGLVQAGGSLRLSCAASGIIFGRYAMGWYRQAPGKEREFVAAITWRVGTTYYADSVKGRFTISRDNAKNTVYLQMNSLKPEDTAVYYCAARSRTGRYDYWGQGTQVTVSS | high polyreactivity

Row | Sequence | polyreactivity (PSR sort gate)
23 | QVQLVESGGGLVQAGGSLRLLCADSGFTFEYYAMGWYRQAPGKERELVAAITSGGSTNYADSVKGRFTISRDNAKNTVYVQMNSLKPEDTAVYYCAAGYWYRYAALRYDHWGQGTQVTVSS | low polyreactivity
24 | QVQLVESGGGLVQAGGSLRLSCAASGSIFSYYAMGWYRQAPGKERELVAAISRGGYTYYADSVKGRFTISRDNAKNTVYLQMNSLKPEDTAVYYCAAAPYYVTLVTRRDYWGQGTQVTVSS | high polyreactivity
25 | QVQLVESGRGLVQAGGTLRLSCAASGSTFNKYAMGWYRQAPGKERELVAAIRSNGVRTYYADSVKVRLTISRDNAKNTVYLQMNSLNPEDTAVYYCNKRYTYRYDYWGQGTQVTVSS | high polyreactivity
26 | QVQLVESGGGLVQAGGSLRLSCAASGSTFYVNAMGWYRQAPGKERELVAGISYNAGSTYYADSVKGRFTISRDNAKNTVSLQMNSLKPEDTAVYYCAAYPYWRWYGYLGYDYWGQGTQVTVSS | low polyreactivity
27 | QDQLVESGGGLVQAGGSLRLSCAASGRTFDLYAMGCYRQAPGKERELVAAITKGGGSTYYADSVKGRFTISRDNAKNTVYLQMNSLKPEDTAVYYCAARKYKRIYRISSGIGYYWGQGTQVTVSS | high polyreactivity
28 | QVQLVESGGGLVQAGGSLRLSCAASVSTFSTYAMGWYRQAPGKERELVAASTWRGSSTYYADSVKGRFTISRDNAKKTVYLQMNSLKPEDTAVYYCAAEDTFYEYYYWGQGTQVTVSS | high polyreactivity
29 | QVQLVESGGGLVQAGGSLRLSCAASGFIFLSNGMVWYRQAPGKERELVAAISSSGGSTYYADSVKGRFTISRDTAKNTVYLQMNSLKPEDTAVYYCAKDNGPWFAYDYWGQGSQVTVSS | low polyreactivity
30 | QVQLVESGGGLVQAGGSLRLSCAASGSIFYSNAMGWYRQAPGKERELVAAITSSGGITRYADSVKGRFTISRDNAKNTVYLQMNSLKPEDTAVYYCAKDIRVYASDYWGQGTQVTVSS | low polyreactivity
31 | QVQLVESGGGLVQAGGSLRLICAASGSIFGINAMGWYRQAPGKERELVAAITWSGTSTYYADSVKGRFTISRDNAKNTDYLQMNSMKPEDTAVYYCAARVGRGYRTYGYWGQGTQVTVSS | high polyreactivity
32 | QVQLVESGGGLVQAGGSLRLSCAAYGRTFFSYTMGWYRQAPGKERELVASITWSGGSTYYADSVKGRFTISRDNAKNTVYLQMNSLKPEDTAVYYCAADEKLYITGYDYWGQGTQVNVSS | low polyreactivity
33 | QVQLVESGGGLVQAGGSLRLSCAASGLIFPYYVKVWYRQAPGKERELVAAISWNGSSTYYADSVKGRFTISRDNAKNTVYLQMNSLKPEDTAVYYCAASYGYFEDYGYWGQGTQVTVSS | low polyreactivity
34 | QVQLVESGGGLVQAGGSLRLSCAASGSTFVIYGMGWYRQAPGKERELVADITWIGGSTYYADSVKGRFTISRDNAKNTVYLQMNSLKPEDTAVYYCAADAAYLYLYNWYDTEDDYWGQGTQVTVSS | low polyreactivity
35 | QVQLEESAGGLVQAGGSLRLSCAASGSIFAYYAMGWYRQAPGKERELVAVIRSGGSTYYADSVKGRFTISRDNAKNTVYFQMNSLKPEDTAVYYCAARSYRPTRGDYWGQGTQVTVSS | high polyreactivity
36 | QVQLVESGGGLVQAGGSLRLSCAASGSIYVQNAMGWYRQAPGKERELVAAITFSGVDTYYADSVKGRFTISRDNAKNTVYFQMNSLKPEDTAVYYCNADRGYNLVRRSQAVVEMDYWGQGTQVTVSS | low polyreactivity
37 | QVQLVESGGGLVQAGGSLRLSCAASGSTVRVYAMGWYRQAPGKERELVARISITGGTTRYADSVKGRFTISRDNAKNTVYLQMNSLKPEDTAVYYCNADYDWYYWYLYKYPFDYWRQGTQVTVSS | low polyreactivity
38 | QVQLVESGGGLVQAGGSLRLSCAASGRTFGQYTMGWYRQAPGKERELVAGITRSGSRTYYADSVKGRFTISRDNAKNTVYLQMNSLKPEDTAVYYCAARVYKSQGGLPEYDYWGQGTQVTVSS | high polyreactivity
39 | QVQLVESGGGLVQAGGSLRLSCAASGFIFGYNAMGWDRQAPGKERELVAAITRSGGRTYYADSVKGRFTISRDNAKNTVSLQMNSLKPEDTAVYYCAASRFATYPRWYDYWGQGTQVTVSS | low polyreactivity
40 | QVQLVESGGGLVQAGGSLRLSCAASGRTFTRYAMGWYRQAPGKERELVATITRGGSTNYADSVKGRFTISRDNAKNTVYLQMNSLKPEDTAVYYCAAGYFIRTRSRYRYDYWGQGTQVTVSS | high polyreactivity
41 | QVQLVESGGGLVHAGGSLRLSCAASGSILKYYAMGWYRQAPGKERELVAAITSRGGSTYYADSVKGRFTISRDNAKNTVYLQMNSLKPEDTAVYYCNRVYLGYFRYDYWGQGTQVTVSS | high polyreactivity
42 | QVPLVESGGGLVQAGGSLRLSCAASGSTFTRYAMGWYRQAPGKEREFVAGISSRGSRTYYADSVKGRFTISRDNAKNTVYLQMNSLKPEDTAVYYCAVSGNHVSPPYGYWGQGTQLTVSS | high polyreactivity
43 | QVQLVESGGGLVQAGGSLRLSCAASGRIFYFYAMGWYRQAPGKERELVAAISTSGGSTYYADSVKGRFTISRDNAKNTVYLQMNSLKPEDTAVYYCAARFRYYGSEYDYWGQGTQVTVAS | low polyreactivity
